{"source": "the supplement of paper PMC10567573", "parents": {"B1": {"name": "KCNAB2 (parent)", "chain": "SSIIHEIDSILGNKPYSKKDYRS"}}}
{"variants_of": "B1", "experiment": "protein stability index of a GFP-peptide fusion (GPS, HEK-293T) (PSI 1-6); higher = more stable", "details": "c terminus: native"}
{"variant": "SSIIHEIDSILGNKPYEKKDYRS", "protein stability index": 3.77}
{"variant": "SSIIHEIDSILGNKPYHKKDYRS", "protein stability index": 2.95}
{"variant": "SSIIHEIDSILGNKPYNKKDYRS", "protein stability index": 2.99}
{"variant": "SSIIHEIDSILGNKPYAKKDYRS", "protein stability index": 3.74}
{"variant": "SSIIHEIDSILGNKPYGKKDYRS", "protein stability index": 3.15}
{"variant": "SSIIHEIDSILGNKPYMKKDYRS", "protein stability index": 3.2}
{"variant": "SSIIHEIDSILGNKPYWKKDYRS", "protein stability index": 2.29}
{"variant": "SSIIHEIDSILGNKPYIKKDYRS", "protein stability index": 3.54}
{"variant": "SSIIHEIDSILGNKPYCKKDYRS", "protein stability index": 3.79}
{"variant": "SSIIHEIDSILGNKPYQKKDYRS", "protein stability index": 3.76}
{"variant": "SSIIHEIDSILGNKPYPKKDYRS", "protein stability index": 3.31}
{"variant": "SSIIHEIDSILGNKPYLKKDYRS", "protein stability index": 2.93}
{"variant": "SSIIHEIDSILGNKPYTKKDYRS", "protein stability index": 2.7}
{"variant": "SSIIHEIDSILGNKPYVKKDYRS", "protein stability index": 3.45}
{"variant": "SSIIHEIDSILGNKPYRKKDYRS", "protein stability index": 3.23}
{"variant": "SSIIHEIDSILGNKPYFKKDYRS", "protein stability index": 3.2}
{"variant": "SSIIHEIDSILGNKPYDKKDYRS", "protein stability index": 3.22}
{"variant": "SSIIHEIDSILGNKPYYKKDYRS", "protein stability index": 2.8}
{"variant": "SSIIHEIDSILGNKPYKKKDYRS", "protein stability index": 3.43}
{"variant": "SSIIHEIDSILGNKPYSRKDYRS", "protein stability index": 2.94}
{"variant": "SSIIHEIDSILGNKPYSCKDYRS", "protein stability index": 2.08}
{"variant": "SSIIHEIDSILGNKPYSSKDYRS", "protein stability index": 2.69}
{"variant": "SSIIHEIDSILGNKPYSPKDYRS", "protein stability index": 2.03}
{"variant": "SSIIHEIDSILGNKPYSFKDYRS", "protein stability index": 2.32}
{"variant": "SSIIHEIDSILGNKPYSLKDYRS", "protein stability index": 2.12}
{"variant": "SSIIHEIDSILGNKPYSIKDYRS", "protein stability index": 2.11}
{"variant": "SSIIHEIDSILGNKPYSMKDYRS", "protein stability index": 1.27}
{"variant": "SSIIHEIDSILGNKPYSAKDYRS", "protein stability index": 2.33}
{"variant": "SSIIHEIDSILGNKPYSVKDYRS", "protein stability index": 2.59}
{"variant": "SSIIHEIDSILGNKPYSEKDYRS", "protein stability index": 3.16}
{"variant": "SSIIHEIDSILGNKPYSYKDYRS", "protein stability index": 2.24}
{"variant": "SSIIHEIDSILGNKPYSNKDYRS", "protein stability index": 3.1}
{"variant": "SSIIHEIDSILGNKPYSWKDYRS", "protein stability index": 3.39}
{"variant": "SSIIHEIDSILGNKPYSDKDYRS", "protein stability index": 2.7}
{"variant": "SSIIHEIDSILGNKPYSGKDYRS", "protein stability index": 2.61}
{"variant": "SSIIHEIDSILGNKPYSHKDYRS", "protein stability index": 2.48}
{"variant": "SSIIHEIDSILGNKPYSQKDYRS", "protein stability index": 2.76}
{"variant": "SSIIHEIDSILGNKPYSTKDYRS", "protein stability index": 2.56}
{"variant": "SSIIHEIDSILANKPYSKKDYRS", "protein stability index": 2.61}
{"variant": "SSIIHEIDSILVNKPYSKKDYRS", "protein stability index": 2.76}
{"variant": "SSIIHEIDSILWNKPYSKKDYRS", "protein stability index": 2.6}
{"variant": "SSIIHEIDSILQNKPYSKKDYRS", "protein stability index": 3.16}
{"variant": "SSIIHEIDSILMNKPYSKKDYRS", "protein stability index": 3.77}
{"variant": "SSIIHEIDSILINKPYSKKDYRS", "protein stability index": 2.62}
{"variant": "SSIIHEIDSILRNKPYSKKDYRS", "protein stability index": 2.73}
{"variant": "SSIIHEIDSILPNKPYSKKDYRS", "protein stability index": 3.86}
{"variant": "SSIIHEIDSILFNKPYSKKDYRS", "protein stability index": 4.21}
{"variant": "SSIIHEIDSILNNKPYSKKDYRS", "protein stability index": 3.18}
{"variant": "SSIIHEIDSILYNKPYSKKDYRS", "protein stability index": 2.97}
{"variant": "SSIIHEIDSILLNKPYSKKDYRS", "protein stability index": 2.8}
{"variant": "SSIIHEIDSILTNKPYSKKDYRS", "protein stability index": 3.24}
{"variant": "SSIIHEIDSILCNKPYSKKDYRS", "protein stability index": 2.82}
{"variant": "SSIIHEIDSILENKPYSKKDYRS", "protein stability index": 3.69}
{"variant": "SSIIHEIDSILKNKPYSKKDYRS", "protein stability index": 3.38}
{"variant": "SSIIHEIDSILSNKPYSKKDYRS", "protein stability index": 3.51}
{"variant": "SSIIHEIDSILDNKPYSKKDYRS", "protein stability index": 3.81}
{"variant": "SSIIHEIDSILGNKPYSKKDARS", "protein stability index": 3.77}
{"variant": "SSIIHEIDSILGNKPYSKKDCRS", "protein stability index": 3.13}
{"variant": "SSIIHEIDSILGNKMYSKKDYRS", "protein stability index": 3.28}
{"variant": "SSIIHEIDSILGNKAYSKKDYRS", "protein stability index": 3.54}
{"variant": "SSIIHEIDSILGNKWYSKKDYRS", "protein stability index": 2.44}
{"variant": "SSIIHEIDSILGNKEYSKKDYRS", "protein stability index": 3.18}
{"variant": "SSIIHEIDSILGNKSYSKKDYRS", "protein stability index": 3.42}
{"variant": "SSIIHEIDSILGNKNYSKKDYRS", "protein stability index": 3.39}
{"variant": "SSIIHEIDSILGNKKYSKKDYRS", "protein stability index": 3.36}
{"variant": "SSIIHEIDSILGNKQYSKKDYRS", "protein stability index": 2.8}
{"variant": "SSIIHEIDSILGNKLYSKKDYRS", "protein stability index": 2.84}
{"variant": "SSIIHEIDSILGNKHYSKKDYRS", "protein stability index": 2.63}
{"variant": "SSIIHEIDSILGNKYYSKKDYRS", "protein stability index": 2.63}
{"variant": "SSIIHEIDSILGNKIYSKKDYRS", "protein stability index": 3.18}
{"variant": "SSIIHEIDSILGNKCYSKKDYRS", "protein stability index": 3.14}
{"variant": "SSIIHEIDSILGNKFYSKKDYRS", "protein stability index": 2.32}
{"variant": "SSIIHEIDSILGNKGYSKKDYRS", "protein stability index": 3.36}
{"variant": "SSIIHEIDSILGNKTYSKKDYRS", "protein stability index": 3.33}
{"variant": "SSIIHEIDSILGNKVYSKKDYRS", "protein stability index": 2.71}
{"variant": "SSIIHEIDSILGNKRYSKKDYRS", "protein stability index": 2.98}
{"variant": "SSIIHEIDSILGNKDYSKKDYRS", "protein stability index": 3.27}
{"variant": "SSIIHEIDSILGNKPASKKDYRS", "protein stability index": 2.85}
{"variant": "SSIIHEIDSILGNKPDSKKDYRS", "protein stability index": 3.65}
{"variant": "SSIIHEIDSILGNKPHSKKDYRS", "protein stability index": 3.27}
{"variant": "SSIIHEIDSILGNKPRSKKDYRS", "protein stability index": 2.22}
{"variant": "SSIIHEIDSILGNKPISKKDYRS", "protein stability index": 3.8}
{"variant": "SSIIHEIDSILGNKPTSKKDYRS", "protein stability index": 3.78}
{"variant": "SSIIHEIDSILGNKPLSKKDYRS", "protein stability index": 3.22}
{"variant": "SSIIHEIDSILGNKPVSKKDYRS", "protein stability index": 3.26}
{"variant": "SSIIHEIDSILGNKPWSKKDYRS", "protein stability index": 2.19}
{"variant": "SSIIHEIDSILGNKPKSKKDYRS", "protein stability index": 2.48}
{"variant": "SSIIHEIDSILGNKPESKKDYRS", "protein stability index": 4.12}
{"variant": "SSIIHEIDSILGNKPMSKKDYRS", "protein stability index": 2.71}
{"variant": "SSIIHEIDSILGNKPGSKKDYRS", "protein stability index": 3.59}
{"variant": "SSIIHEIDSILGNKPFSKKDYRS", "protein stability index": 3.41}
{"variant": "SSIIHEIDSILGNKPSSKKDYRS", "protein stability index": 3.02}
{"variant": "SSIIHEIDSILGNKPNSKKDYRS", "protein stability index": 3.34}
{"variant": "SSIIHEIDSILGNKPQSKKDYRS", "protein stability index": 3.14}
{"variant": "SSIIHEIDSILGNKPPSKKDYRS", "protein stability index": 3.6}
{"variant": "SSIIHEIDSILGNKPCSKKDYRS", "protein stability index": 3.55}
{"variant": "SSIIHEIDSTLGNKPYSKKDYRS", "protein stability index": 3.89}
